Assay [1] deals with T1, human CXCR5 (human, UniProt P32302 1-372).
T1 construct: also called hCXCR5; C-X-C chemokine receptor type 5
T1 sequence: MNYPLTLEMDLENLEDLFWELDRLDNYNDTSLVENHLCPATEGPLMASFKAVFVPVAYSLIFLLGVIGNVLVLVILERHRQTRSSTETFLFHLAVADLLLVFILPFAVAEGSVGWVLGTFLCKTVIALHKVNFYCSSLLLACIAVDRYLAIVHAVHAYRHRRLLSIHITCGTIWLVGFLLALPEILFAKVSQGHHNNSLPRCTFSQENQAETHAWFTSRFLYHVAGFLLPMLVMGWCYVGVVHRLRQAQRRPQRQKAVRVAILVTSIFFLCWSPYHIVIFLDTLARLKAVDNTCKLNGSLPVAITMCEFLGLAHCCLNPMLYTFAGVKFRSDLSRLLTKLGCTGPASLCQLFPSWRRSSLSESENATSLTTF
Briefly: flow cytometry, human PBMC B cells. As for the experimental part: (§1) The apparent affinity for cell surface CXCR5 of chimeric and humanized CXCR5 fucosylated and afucosylated antibodies was assessed. More specifically, to determine the apparent affinity of chimeric and humanized CXCR5 antibodies to CXCR5-expressing cells, cell binding experiments were performed on human and cynomolgus monkey peripheral blood mononuclear cells (PBMCs) and human tonsillar mononuclear cells (TMCs). The apparent affinity of CXCR5 mab binding to CXCR5+ cells (B cells, bona fide Tfh cells, and circulating Tfh-like cells) was calculated as the EC50 of equilibrium binding titration curves in which the geometric mean fluorescence intensity (gMFI) of the antigen binding population was quantified by flow cytometry.
(§2) Following isolation, PBMCs were plated at a density of 1.0×10⁵ cells per well and CD4+ TMCs were plated at a density of 2.0×10⁵ cells per well in isolation buffer (PBS containing 1% FBS and 1 mM EDTA) in 96 well U-bottom plates. The plates were then centrifuged at 1500 rpm for 5 minutes at room temperature. PBMCs and CD4+ TMCs were resuspended in Fluorescence-activated cell sorting (FACS) buffer (PBS containing 1% FBS) containing human crystallized fragment Fc block (2 μL per well; Biolegend) and 4-fold serial dilutions of the antibodies (11-point dilution series, beginning at 5000 ng/mL for PBMCs and 312.5 ng/mL for CD4+ TMCs) and incubated on ice for 2 hours. PBMCs and CD4+ TMCs were then washed with FACS buffer 3 times and resuspended in 50-100 μL of FACs buffer containing fluorescent-conjugated antibodies for staining lymphocyte subsets and a fluorescent-conjugated secondary antibody against human Ig to detect CXCR5 monoclonal antibodies (mAbs). After incubation for 30 minutes at 4° C., PBMCs and CD4+ TMCs were washed with FACS buffer 2 times and resuspended in 125 μL of 0.5% paraformaldehyde (PFA) in PBS. Plates were stored at 4° C. until analysis by flow cytometry (BD LSRFortessa™ Cell Analyzer, BD Biosciences, Franklin Lakes, N.J.).
(§3) The cell binding titration curves were generated by plotting the gMFI of the antigen binding population against the log of CXCR5 antibody concentration. EC₅₀ values were determined using GraphPad Prism® (version 6.0, GraphPad Software, Inc, San Diego, Calif.) nonlinear-regression curve fits and a sigmoidal log of agonist dose-response model, according to the following equation

Assay [2] has as its target T2, CXCR1 (human, UniProt P25024 1-350).
T2 construct: whole, on cells
T2 sequence (looked up): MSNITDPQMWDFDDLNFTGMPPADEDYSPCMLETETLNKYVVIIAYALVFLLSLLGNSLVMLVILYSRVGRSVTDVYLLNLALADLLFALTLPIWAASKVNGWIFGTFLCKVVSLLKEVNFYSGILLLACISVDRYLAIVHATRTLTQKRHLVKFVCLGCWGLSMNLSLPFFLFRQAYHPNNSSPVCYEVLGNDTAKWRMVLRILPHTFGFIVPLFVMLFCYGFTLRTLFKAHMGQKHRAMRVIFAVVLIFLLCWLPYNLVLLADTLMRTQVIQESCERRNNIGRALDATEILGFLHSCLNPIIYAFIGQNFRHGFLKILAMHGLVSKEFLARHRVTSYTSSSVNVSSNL
Description: flow cytometry (GMFI) on fixed CXCR1 cells, chimeric antibody, goat anti-human PE. As for the experimental part: (§4) To determine the specificity of the antibodies for CXCR5, the binding of the antibodies to cells expressing other […] was assessed. Briefly, FlowCellect chemokine receptor cell lines expressing CXCR1, CXCR2, or CXCR3 (EMD Millipore, Billerica, Mass.), and Jurkats (ATCC, Manassas, Va.), which express CXCR4, were stained with 5 μg/ml or 10 μg/ml of each anti-CXCR5 chimeric antibody. The cells were then incubated with goat anti-human conjugated with PE (Southern Biotech, Birmingham, Ala.) prior to analysis by flow cytometry using a FACSVerse Analyzer (BD Biosciences, Franklin Lakes, N.J.).
In general terms: A flow cytometer gives signals particle by particle.

Assay [3] deals with T3, CXCR2 (human, UniProt P25025 1-360).
T3 construct: whole, on cells
T3 sequence (looked up): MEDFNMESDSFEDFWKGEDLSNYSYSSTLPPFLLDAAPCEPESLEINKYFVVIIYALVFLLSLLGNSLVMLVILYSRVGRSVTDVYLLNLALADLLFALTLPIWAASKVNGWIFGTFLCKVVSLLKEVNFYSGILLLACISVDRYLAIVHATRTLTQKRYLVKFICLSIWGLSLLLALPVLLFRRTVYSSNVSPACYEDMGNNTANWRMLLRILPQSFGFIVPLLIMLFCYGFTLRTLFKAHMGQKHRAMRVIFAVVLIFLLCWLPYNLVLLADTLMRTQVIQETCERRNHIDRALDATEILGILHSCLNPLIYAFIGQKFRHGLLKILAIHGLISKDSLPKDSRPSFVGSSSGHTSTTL
Briefly: flow cytometry (GMFI) on fixed CXCR2 cells, chimeric antibody, goat anti-human PE. As for the experimental part:
as §4

Assay [4] has as its target T4, cynomolgus monkey CXCR5 (cynomolgus monkey, UniProt P32302 1-372 (human entry)).
T4 construct: also called cynoCXCR5; NHP CXCR5
T4 chain: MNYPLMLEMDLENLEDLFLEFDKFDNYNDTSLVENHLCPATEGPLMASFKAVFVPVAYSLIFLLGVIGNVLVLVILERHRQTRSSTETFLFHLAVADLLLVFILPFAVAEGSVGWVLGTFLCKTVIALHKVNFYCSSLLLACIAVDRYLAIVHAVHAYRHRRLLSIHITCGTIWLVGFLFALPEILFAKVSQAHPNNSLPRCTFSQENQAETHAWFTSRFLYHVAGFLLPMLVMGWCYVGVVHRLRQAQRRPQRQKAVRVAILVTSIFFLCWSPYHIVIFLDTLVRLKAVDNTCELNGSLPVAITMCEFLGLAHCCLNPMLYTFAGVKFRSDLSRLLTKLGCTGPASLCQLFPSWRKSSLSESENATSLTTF
Briefly: flow cytometry on cynoCXCR5-300.19 cells, fucosylated chimeric antibody.

The target of assay [5] is T4, cynomolgus monkey CXCR5. Description: flow cytometry, cynomolgus PBMC B cells. As for the experimental part: as §1, §2, §3
Assay [6] has as its target T1, human CXCR5. Description: cell-based or functional assay.
Assay [7] concerns the target T5, CXCR3 (human, UniProt P49682 1-368).
T5 construct: whole, on cells
T5 sequence (looked up): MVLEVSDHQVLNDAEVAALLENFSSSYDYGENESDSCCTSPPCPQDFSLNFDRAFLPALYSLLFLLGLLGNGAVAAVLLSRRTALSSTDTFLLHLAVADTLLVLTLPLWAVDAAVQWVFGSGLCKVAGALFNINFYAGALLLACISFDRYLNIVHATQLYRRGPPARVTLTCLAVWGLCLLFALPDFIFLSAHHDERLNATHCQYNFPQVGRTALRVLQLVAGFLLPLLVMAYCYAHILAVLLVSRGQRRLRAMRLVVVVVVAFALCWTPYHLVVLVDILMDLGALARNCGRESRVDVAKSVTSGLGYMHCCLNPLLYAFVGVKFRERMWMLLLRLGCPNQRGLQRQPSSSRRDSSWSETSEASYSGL
Briefly: flow cytometry (GMFI) on fixed CXCR3 cells, chimeric antibody, goat anti-human PE. The protocol: as §4

Assay [8] deals with T1, human CXCR5. Briefly: flow cytometry on Raji cells, fucosylated chimeric antibody. As for the experimental part: The fucosylated chimeric antibodies were then purified using protein A columns. The apparent affinity (cell binding EC50s) of chimeric antibody binding to Raji cells was determined by flow cytometry using a FACSVerse Analyzer (BD Bioscience, Franklin Lakes, N.J.) and are shown in Table 3.

In assay [9] the target is T6, CXCR4 (human, UniProt P61073 1-352).
T6 construct: whole, on cells
T6 sequence (P61073 whole entry): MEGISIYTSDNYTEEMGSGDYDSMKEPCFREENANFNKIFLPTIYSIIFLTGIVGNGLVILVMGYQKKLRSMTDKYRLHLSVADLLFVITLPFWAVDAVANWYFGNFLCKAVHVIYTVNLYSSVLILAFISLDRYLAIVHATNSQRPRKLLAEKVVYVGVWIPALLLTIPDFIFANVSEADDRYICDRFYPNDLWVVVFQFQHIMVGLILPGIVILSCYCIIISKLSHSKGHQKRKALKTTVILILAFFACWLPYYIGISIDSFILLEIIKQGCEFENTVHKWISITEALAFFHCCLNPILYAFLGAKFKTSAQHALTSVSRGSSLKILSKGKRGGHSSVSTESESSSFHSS
Briefly: flow cytometry (GMFI) on Jurkat cells, which express CXCR4; chimeric antibody, goat anti-human PE. The protocol:
as §4

B1: Chimeric 41A10 (antibody, human IgG1, kappa, V domains shown)
VH: EVQLVESGGDLVKPGGSLKLSCAASGFTFRSYGMSWVRQTPDKRLEWVATISSGGTYTFYPDILKGRITISRDNAKNTLYLQMSNLKSEDTAMYYCARRGEDYRGALEHWGQGTSVTVSS
VL: QIVLTQSPAVMSASPGEKVTMTCSASSSVNYIHWYQQKSGTSPKRWIYETSRLASGVPVRFSGSGSGTSYSLTISTMEAEDAATYYCQQWSSNPLTFGAGTKLELKR
notes: mouse V regions on human IgG1/kappa; fucosylated; also called 41A10 (chimeric)
Regarding B1, the EC50 (usually the concentration at which the effect is half-maximal) in assay [1] turned out to be 0.161 nM; in [4], 0.831 nM; in assay [5] it was 0.549 nM; in [8], 0.39 nM. The binding result in assay [2], in assay [3] and in assay [7] was “no binding (tested: 5 or 10 µg/ml (not on the sheet))” in each case. Further, the “ADCC Activity Average EC50, Human B Cells” value in assay [6] was found to be 11.7 nM.

B2: chimeric 5H7 (antibody, human IgG1, kappa, V domains shown)
VH: EVKLVESGGGLVQPGDSLRLSCATSGFTFTDFYMSWVRQPPGRALEWLGFIRNKANGYTTEYSASVKGRFTISRDNSQSILYLQMNTLRAGDSATYYCVRVYGSTLHYWGQGTILTVSS
VL: DVVVTQSPDSLAVSLGQRATISCRASESVEYHGTSLMHWYQQKPGQPPKLLIYAASNVESGVPARFSGSGSGTDFSLNIHPVEEGDVSMFFCQQSRKVPWTFGGGTKLEIKR
notes: mouse V regions on human IgG1/kappa; fucosylated; also called 5H7 (chimeric)
On to B2, for which the binding result in assay [2], in assay [3], in assay [9] and in assay [7] was “no binding (tested: 5 or 10 µg/ml (not on the sheet))” in each case. In addition, the 50% effective concentration (EC50) turned out to be 0.0603 nM in assay [4] and 0.0421 nM in [8].

Values taken from patent US20210101970A1 (Pfizer, published 2021).
